Key:
[1] = biological target: inactive human 80S ribosome (human (endogenous in MCF7)) (UniProt P18124); experiment: cryo-EM structure
[2] = biological target: large 60S ribosomal subunit (human (endogenous in MCF7)) (UniProt P30050); experiment: co-sedimentation
[3] = biological target: large 60S ribosomal subunit (human (endogenous in MCF7)) (UniProt P30050); experiment: cryo-EM structure

“IFRD2 (from UniProt Q12894 1-442) (natural protein)” was tested, and the percent of 80S ribosomes with IFRD2 (arsenite-treated cells) [1] was 13% and the percent of 80S ribosomes with IFRD2 (untreated cells) [1] was 16.9%.

“LYAR (from UniProt Q9NX58 1-379) (natural protein)” showed a percent of 80S ribosomes with LYAR (arsenite-treated cells) [1] of 15.5% and a percent of 80S ribosomes with LYAR (untreated cells) [1] of 13.2%.

For “eIF6 (from UniProt P56537 1-245) (natural protein)”, the stoichiometry N (eIF6 : large subunit proteins) [2] was 1 and the percent of 60S subunits with eIF6 (untreated cells) [3] was 30%.

Source: publication doi:10.1101/2022.05.13.491786
